Measurements taken from US20250320281A1.

Tests used:
Assay in all cases: cell-based or functional assay
[1] = molecular target: HIV-1 Env of isolate 92RW008 (pseudovirus) (HIV-1)
[2] = molecular target: HIV-1 Env of isolate 92TH021 (pseudovirus) (HIV-1)
[3] = molecular target: HIV-1 Env of isolate 92UG031 (pseudovirus) (HIV-1)
[4] = molecular target: HIV-1 Env of isolate 92UG037 (pseudovirus) (HIV-1)
[5] = molecular target: HIV-1 Env of isolate 92WR009 (pseudovirus) (HIV-1)
[6] = molecular target: HIV-1 Env of isolate 92WR020 (pseudovirus) (HIV-1)
[7] = molecular target: HIV-1 Env of isolate 92WR021 (pseudovirus) (HIV-1)
[8] = molecular target: HIV-1 Env of isolate 92WR024 (pseudovirus) (HIV-1)
[9] = molecular target: HIV-1 Env of isolate 92WR026 (pseudovirus) (HIV-1)
[10] = molecular target: HIV-1 Env of isolate 93UG077 (pseudovirus) (HIV-1)
[11] = molecular target: HIV-1 Env of isolate 93WR029 (pseudovirus) (HIV-1)
[12] = molecular target: HIV-1 Env of isolate 94KE105 (pseudovirus) (HIV-1)
[13] = molecular target: HIV-1 Env of isolate 94UG103 (pseudovirus) (HIV-1)
[14] = molecular target: HIV-1 Env of isolate CMU02 (pseudovirus) (HIV-1)
[15] = molecular target: HIV-1 Env of isolate MGRM-A-001 (pseudovirus) (HIV-1)
[16] = molecular target: HIV-1 Env of isolate MGRM-A-002 (pseudovirus) (HIV-1)
[17] = molecular target: HIV-1 Env of isolate MGRM-A-003 (pseudovirus) (HIV-1)
[18] = molecular target: HIV-1 Env of isolate MGRM-A-004 (pseudovirus) (HIV-1)
[19] = molecular target: HIV-1 Env of isolate MGRM-A-005 (pseudovirus) (HIV-1)
[20] = molecular target: HIV-1 Env of isolate MGRM-A-006 (pseudovirus) (HIV-1)
[21] = molecular target: HIV-1 Env of isolate MGRM-A-007 (pseudovirus) (HIV-1)
[22] = molecular target: HIV-1 Env of isolate MGRM-A-008 (pseudovirus) (HIV-1)
[23] = molecular target: HIV-1 Env of isolate MGRM-A-009 (pseudovirus) (HIV-1)
[24] = molecular target: HIV-1 Env of isolate MGRM-A-010 (pseudovirus) (HIV-1)
[25] = molecular target: HIV-1 Env of isolate MGRM-A-011 (pseudovirus) (HIV-1)
[26] = molecular target: HIV-1 Env of isolate MGRM-A-012 (pseudovirus) (HIV-1)
[27] = molecular target: HIV-1 Env of isolate MGRM-A-013 (pseudovirus) (HIV-1)
[28] = molecular target: HIV-1 Env of isolate MGRM-A-014 (pseudovirus) (HIV-1)
[29] = molecular target: HIV-1 Env of isolate MGRM-AE-001 (pseudovirus) (HIV-1)
[30] = molecular target: HIV-1 Env of isolate MGRM-AE-002 (pseudovirus) (HIV-1)
[31] = molecular target: HIV-1 Env of isolate MGRM-AE-003 (pseudovirus) (HIV-1)
[32] = molecular target: HIV-1 Env of isolate VLGCA1 (pseudovirus) (HIV-1)
[33] = molecular target: HIV-1 92BR020 envelope glycoprotein (Env) on pseudovirus (HIV-1)
[34] = molecular target: HIV-1 92RW020 envelope glycoprotein (Env) on pseudovirus (HIV-1)
[35] = molecular target: HIV-1 92TH021 envelope glycoprotein (Env) on pseudovirus (HIV-1)
[36] = molecular target: HIV-1 92UG005 envelope glycoprotein (Env) on pseudovirus (HIV-1)
[37] = molecular target: HIV-1 92UG024 envelope glycoprotein (Env) on pseudovirus (HIV-1)
[38] = molecular target: HIV-1 93IN905 envelope glycoprotein (Env) on pseudovirus (HIV-1)
[39] = molecular target: HIV-1 93UG077 envelope glycoprotein (Env) on pseudovirus (HIV-1)
[40] = molecular target: HIV-1 94UG103 envelope glycoprotein (Env) on pseudovirus (HIV-1)
[41] = molecular target: HIV-1 APV13 envelope glycoprotein (Env) on pseudovirus (HIV-1)
[42] = molecular target: HIV-1 APV17 envelope glycoprotein (Env) on pseudovirus (HIV-1)
[43] = molecular target: HIV-1 APV6 envelope glycoprotein (Env) on pseudovirus (HIV-1)
[44] = molecular target: HIV-1 CMU02 envelope glycoprotein (Env) on pseudovirus (HIV-1)
[45] = molecular target: HIV-1 JRCSF envelope glycoprotein (Env) on pseudovirus (HIV-1) (UniProt P20871)
[46] = molecular target: HIV-1 JRFL envelope glycoprotein (Env) on pseudovirus (HIV-1)
[47] = molecular target: HIV-1 MGRM-A-010 envelope glycoprotein (Env) on pseudovirus (HIV-1)
[48] = molecular target: HIV-1 MGRM-AG-005 envelope glycoprotein (Env) on pseudovirus (HIV-1)
[49] = molecular target: HIV-1 MGRM-C-026 envelope glycoprotein (Env) on pseudovirus (HIV-1)
[50] = molecular target: HIV-1 MGRM-C-027 envelope glycoprotein (Env) on pseudovirus (HIV-1)
[51] = molecular target: HIV-1 MGRM-C-028 envelope glycoprotein (Env) on pseudovirus (HIV-1)
[52] = molecular target: HIV-1 MGRM-D-001 envelope glycoprotein (Env) on pseudovirus (HIV-1)
[53] = molecular target: HIV-1 MGRM-D-018 envelope glycoprotein (Env) on pseudovirus (HIV-1)
[54] = molecular target: HIV-1 NL43 envelope glycoprotein (Env) on pseudovirus (HIV-1)
[55] = molecular target: aMLV envelope on pseudovirus (negative control virus)

B1: PGT-123 (4858_P08) (antibody, V domains shown)
VH: QLHLQESGPGLVKPPETLSLTCSVSGASINDAYWSWIRQSPGKRPEWVGYVHHSGDTNYNPSLKRRVTFSLDTAKNEVSLKLVDLTAADSATYFCARALHGKRIYGIVALGELFTYFYMDVWGKGTAVTVSS
VL: SSMSVSPGETAKISCGKESIGSRAVQWYQQKPGQPPSLIIYNNQDRPAGVPERFSASPDFRPGTTATLTITNVDAEDEADYYCHIYDARGGTNWVFDRGTTLTVL
- IC50 (µg/mL), pseudovirus neutralization [1]: 0.003 µg/mL
- IC50 (µg/mL), pseudovirus neutralization [2]: > 50 µg/mL
- IC50 (µg/mL), pseudovirus neutralization [3]: > 50 µg/mL
- IC50 (µg/mL), pseudovirus neutralization [4]: 0.023 µg/mL
- IC50 (µg/mL), pseudovirus neutralization [5]: 15.7 µg/mL
- IC50 (µg/mL), pseudovirus neutralization [6]: 0.002 µg/mL
- IC50 (µg/mL), pseudovirus neutralization [7]: 0.005 µg/mL
- IC50 (µg/mL), pseudovirus neutralization [8]: > 50 µg/mL
- IC50 (µg/mL), pseudovirus neutralization [9]: 0.012 µg/mL
- IC50 (µg/mL), pseudovirus neutralization [10]: 0.028 µg/mL
- IC50 (µg/mL), pseudovirus neutralization [11]: > 50 µg/mL
- IC50 (µg/mL), pseudovirus neutralization [12]: 0.024 µg/mL
- IC50 (µg/mL), pseudovirus neutralization [13]: 0.678 µg/mL
- IC50 (µg/mL), pseudovirus neutralization [14]: > 50 µg/mL
- IC50 (µg/mL), pseudovirus neutralization [15]: > 50 µg/mL
- IC50 (µg/mL), pseudovirus neutralization [16]: 0.011 µg/mL
- IC50 (µg/mL), pseudovirus neutralization [17]: 0.495 µg/mL
- IC50 (µg/mL), pseudovirus neutralization [18]: > 50 µg/mL
- IC50 (µg/mL), pseudovirus neutralization [19]: > 50 µg/mL
- IC50 (µg/mL), pseudovirus neutralization [20]: > 50 µg/mL
- IC50 (µg/mL), pseudovirus neutralization [21]: > 50 µg/mL
- IC50 (µg/mL), pseudovirus neutralization [22]: > 50 µg/mL
- IC50 (µg/mL), pseudovirus neutralization [23]: 0.004 µg/mL
- IC50 (µg/mL), pseudovirus neutralization [24]: 0.705 µg/mL
- IC50 (µg/mL), pseudovirus neutralization [25]: > 50 µg/mL
- IC50 (µg/mL), pseudovirus neutralization [26]: 0.192 µg/mL
- IC50 (µg/mL), pseudovirus neutralization [27]: 0.565 µg/mL
- IC50 (µg/mL), pseudovirus neutralization [28]: 0.003 µg/mL
- IC50 (µg/mL), pseudovirus neutralization [29]: > 50 µg/mL
- IC50 (µg/mL), pseudovirus neutralization [30]: > 50 µg/mL
- IC50 (µg/mL), pseudovirus neutralization [31]: > 50 µg/mL
- IC50 (µg/mL), pseudovirus neutralization [32]: > 50 µg/mL

B2: PGT-136 (5329_C19; 5366_P21) human monoclonal anti-HIV-1 antibody (antibody, V domains shown)
VH: QLQLQESGPGLVKPSETLSLTCTVSGGSMRGTDWGENDFHYGWIRQSSAKGLEWIGSIHWRGRTTHYKTSFRSRATLSIDTSNNRFSLTFSFVTAADTAVYYCARHKYHDIFRVVPVAGWFDPWGQGLLVTVSS
VL: EIVMTQSPPTLSVSPGETATLSCRASQNVKNNLAWYQLKPGQAPRLLIFDASSRAGGIPDRFSGSGYGTDFTLTVNSVQSEDFGDYFCQQYEEWPRTFGQGTKVDIK
- neutralization IC50 [33]: > 10 µg/mL
- neutralization IC80 [33]: > 10 µg/mL
- neutralization IC90 [33]: > 10 µg/mL
- neutralization IC95 [33]: > 10 µg/mL
- neutralization IC50 [34]: 0.738 µg/mL
- neutralization IC80 [34]: > 10 µg/mL
- neutralization IC90 [34]: > 10 µg/mL
- neutralization IC95 [34]: > 10 µg/mL
- neutralization IC50 [35]: > 10 µg/mL
- neutralization IC80 [35]: > 10 µg/mL
- neutralization IC90 [35]: > 10 µg/mL
- neutralization IC95 [35]: > 10 µg/mL
- neutralization IC50 [36]: > 10 µg/mL
- neutralization IC80 [36]: > 10 µg/mL
- neutralization IC90 [36]: > 10 µg/mL
- neutralization IC95 [36]: > 10 µg/mL
- neutralization IC50 [37]: 0.0915 µg/mL
- neutralization IC80 [37]: 0.619 µg/mL
- neutralization IC90 [37]: 1.96 µg/mL
- neutralization IC95 [37]: 5.97 µg/mL
- neutralization IC50 [38]: 0.0135 µg/mL
- neutralization IC80 [38]: 0.0623 µg/mL
- neutralization IC90 [38]: 0.156 µg/mL
- neutralization IC95 [38]: 0.379 µg/mL
- neutralization IC50 [39]: > 10 µg/mL
- neutralization IC80 [39]: > 10 µg/mL
- neutralization IC90 [39]: > 10 µg/mL
- neutralization IC95 [39]: > 10 µg/mL
- neutralization IC50 [40]: > 10 µg/mL
- neutralization IC80 [40]: > 10 µg/mL
- neutralization IC90 [40]: > 10 µg/mL
- neutralization IC95 [40]: > 10 µg/mL
- neutralization IC50 [41]: > 10 µg/mL
- neutralization IC80 [41]: > 10 µg/mL
- neutralization IC90 [41]: > 10 µg/mL
- neutralization IC95 [41]: > 10 µg/mL
- neutralization IC50 [42]: > 10 µg/mL
- neutralization IC80 [42]: > 10 µg/mL
- neutralization IC90 [42]: > 10 µg/mL
- neutralization IC95 [42]: > 10 µg/mL
- neutralization IC50 [43]: > 10 µg/mL
- neutralization IC80 [43]: > 10 µg/mL
- neutralization IC90 [43]: > 10 µg/mL
- neutralization IC95 [43]: > 10 µg/mL
- neutralization IC50 [44]: > 10 µg/mL
- neutralization IC80 [44]: > 10 µg/mL
- neutralization IC90 [44]: > 10 µg/mL
- neutralization IC95 [44]: > 10 µg/mL
- neutralization IC50 [45]: > 10 µg/mL
- neutralization IC80 [45]: > 10 µg/mL
- neutralization IC90 [45]: > 10 µg/mL
- neutralization IC95 [45]: > 10 µg/mL
- neutralization IC50 [46]: > 10 µg/mL
- neutralization IC80 [46]: > 10 µg/mL
- neutralization IC90 [46]: > 10 µg/mL
- neutralization IC95 [46]: > 10 µg/mL
- neutralization IC50 [47]: > 10 µg/mL
- neutralization IC80 [47]: > 10 µg/mL
- neutralization IC90 [47]: > 10 µg/mL
- neutralization IC95 [47]: > 10 µg/mL
- neutralization IC50 [48]: > 10 µg/mL
- neutralization IC80 [48]: > 10 µg/mL
- neutralization IC90 [48]: > 10 µg/mL
- neutralization IC95 [48]: > 10 µg/mL
- neutralization IC50 [49]: 0.0065 µg/mL
- neutralization IC80 [49]: 0.0285 µg/mL
- neutralization IC90 [49]: 0.0687 µg/mL
- neutralization IC95 [49]: 0.159 µg/mL
- neutralization IC50 [50]: > 10 µg/mL
- neutralization IC80 [50]: > 10 µg/mL
- neutralization IC90 [50]: > 10 µg/mL
- neutralization IC95 [50]: > 10 µg/mL
- neutralization IC50 [51]: > 10 µg/mL
- neutralization IC80 [51]: > 10 µg/mL
- neutralization IC90 [51]: > 10 µg/mL
- neutralization IC95 [51]: > 10 µg/mL
- neutralization IC50 [52]: > 10 µg/mL
- neutralization IC80 [52]: > 10 µg/mL
- neutralization IC90 [52]: > 10 µg/mL
- neutralization IC95 [52]: > 10 µg/mL
- neutralization IC50 [53]: > 10 µg/mL
- neutralization IC80 [53]: > 10 µg/mL
- neutralization IC90 [53]: > 10 µg/mL
- neutralization IC95 [53]: > 10 µg/mL
- neutralization IC50 [54]: > 10 µg/mL
- neutralization IC80 [54]: > 10 µg/mL
- neutralization IC90 [54]: > 10 µg/mL
- neutralization IC95 [54]: > 10 µg/mL
- neutralization IC50 [55]: > 10 µg/mL
- neutralization IC80 [55]: > 10 µg/mL
- neutralization IC90 [55]: > 10 µg/mL
- neutralization IC95 [55]: > 10 µg/mL
